According to the supplement of paper PMC9170038:

Tested on: MS2 coat protein
Assay: apparent KD of MS2 coat protein; designed switch direction (-1 OFF switch, 1 ON switch): -1; higher = weaker reporter binding
How it was run: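 SNAP-549-labelled MS2 coat protein was titrated, doubling from 0.7 or 1.5 nM to 3 µM, over designed RNA switches transcribed on Illumina chips by stalled E. coli RNA polymerase. Runs were done without input, with 200 uM small-molecule ligand, or with an oligonucleotide input. Apparent KD is the per-design median over clusters of curve-fitted normalised fluorescence.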

[1] = Eterna round: R95, input ligand: FMN 200 uM
[2] = Eterna round: R95, input ligand: microRNA oligo, concentration not stated
[3] = Eterna round: R95, input ligand: none
[4] = input ligand: microRNA oligo, concentration not stated

Sequence: CCCAGGGCAGGAUAUAGAGGGCUAAACAUGAGGAUCACCCAUGUGACCUCGGAACAGUUGCUAGAAGGGCCAGAUU [Maedonxe] (puzzle: Exclusion 5)
- apparent KD of MS2 coat protein [1]: 29.8 nM
- apparent KD of MS2 coat protein [2]: 17.7 nM
- apparent KD of MS2 coat protein [3]: 22 nM

Sequence: CCCAGUUAGGAAGGAUAUUGUACAUGAGGAUCACCCAUGUAAUAAAUGAGGAUCUCGGAUGUCUACAAGAAGGUCCGGAUAGGC [Ostracism 11 - Jieux - Exclusion NG 2] (Eterna round: R96, puzzle: Exclusion NG 2)
- apparent KD of MS2 coat protein (input ligand: FMN 200 uM): 65.9 nM
- apparent KD of MS2 coat protein [4]: 34.3 nM
- apparent KD of MS2 coat protein (input ligand: none): 44.5 nM

Sequence: CCCAGUUAUGAAGGAUAUUGUACAUGAGGAUCACCCAUGUAAUAAAUGAGGAUUUCGGGUGUCUACAAGAAGGUCAGGAUAGGC [Ostracism 14 - Jieux - Exclusion NG 2] (Eterna round: R96, puzzle: Exclusion NG 2)
- apparent KD of MS2 coat protein (input ligand: FMN 200 uM): 82.8 nM
- apparent KD of MS2 coat protein [4]: 43.6 nM
- apparent KD of MS2 coat protein (input ligand: none): 60.6 nM

Sequence: CCCGUGUGAGGAUAUACUCUAAGCAAUGUCAGUUGCUACAGGUAGAAGGCACAUGAGGAUCACCCAUGUCCCGG [EX4 C.24] (Eterna round: R97, puzzle: Exclusion 4)
- apparent KD of MS2 coat protein (input ligand: FMN 200 uM): 130 nM
- apparent KD of MS2 coat protein (input ligand: none): 241 nM

Sequence: CCCUCACAUGAGGAUCACCCAUGUCAGGAUAUAGUGCGAUUGUCGAUAUGAAAUUGCAUUAGAAGGGAUUAGGC [Eternabot (L1) Solution 67] (Eterna round: R97, puzzle: Exclusion 1)
- apparent KD of MS2 coat protein (input ligand: FMN 200 uM): 24.8 nM
- apparent KD of MS2 coat protein (input ligand: none): 17.5 nM

Sequence: CCCUCACAUGAGGAUCACCCAUGUCAGGAUAUUCAGGUCACGCAAAAGCGGUUCCAAAGGAGAAGGGACAUCAA [Cequusso] (puzzle: Exclusion 1)
- apparent KD of MS2 coat protein [1]: 43.8 nM
- apparent KD of MS2 coat protein [2]: 24.2 nM
- apparent KD of MS2 coat protein [3]: 30.9 nM

Sequence: CCCUCACUUGAGGAUCACCCAAGUCAGGAUAUCUCACCCGUCCUGCAAGACGGGUCACAGAGAAGGGACUAAAA [Araatra] (Eterna round: R97, puzzle: Exclusion 1)
- apparent KD of MS2 coat protein (input ligand: FMN 200 uM): 69 nM
- apparent KD of MS2 coat protein (input ligand: none): 21.9 nM

Sequence: CCCUCGCGAGGAUAUGCAUCCUCCCUCAUUUCUUUCACUACACAUGAGGAUCACCCAUGUAGAAGGCGCUCUCC [Nina] (puzzle: Exclusion 2)
- apparent KD of MS2 coat protein [2]: 41.2 nM

Sequence: CCGAAGGCAGGAUAUACAGGACAGACCCAUCAGAGCAGACUACAUGAGGAUCACCCAUGUAGAAGGGCCUUCAA [Eternabot (Original) Solution 26] (Eterna round: R97, puzzle: Exclusion 2)
- apparent KD of MS2 coat protein (input ligand: FMN 200 uM): 154 nM
- apparent KD of MS2 coat protein (input ligand: none): 18.7 nM

Sequence: CCGAAUAUGCAGGAUAUCGUAUCGGAAACGAUACGAGAAGGGCAAACAUGAGGAUCACCCAUGUUCCUUAACGG [Fiskers Ex 6 - 14] (puzzle: Exclusion 6)
- apparent KD of MS2 coat protein [2]: 15.8 nM

Sequence: CCGAAUAUGUAGGAUAUCGUAUCGGAAACGAUACGAGAAGGACAAACAUGAGGAUCACCCAUGUUCCUUAACGG [Fiskers Ex 6 - 12] (puzzle: Exclusion 6)
- apparent KD of MS2 coat protein [1]: 18.5 nM
- apparent KD of MS2 coat protein [2]: 15.6 nM
- apparent KD of MS2 coat protein [3]: 15 nM

Sequence: CCGCAAAUUGAGGAUAUCGUAUCGGAUACGAUACGAGAAGGCGAAACAUGAGGAUCACCCAUGUGUCCUAGCGG [Fiskers Ex 6 - 33] (puzzle: Exclusion 6)
- apparent KD of MS2 coat protein [1]: 18.2 nM
- apparent KD of MS2 coat protein [2]: 12 nM
- apparent KD of MS2 coat protein [3]: 14.4 nM

Sequence: CCGCAGCAAGGAUAUACUUGCGGUGGUGAACGAGGGCUUAUACUUGAGGAUCACCCAAGUAGAAGGUGCAAAAC [Mamaed] (Eterna round: R97, puzzle: Exclusion 2)
- apparent KD of MS2 coat protein (input ligand: FMN 200 uM): 33.9 nM
- apparent KD of MS2 coat protein (input ligand: none): 22.4 nM

Sequence: CCGCUGUGAGGAUAUUAGUAGUAGUCAGAAAAGACUAUUACUGAGAAGGCACAUGAGGAUCACCCAUGUGGCGG [Mat - Exclusion 4 - Eli Mod - D47] (Eterna round: R97, puzzle: Exclusion 4)
- apparent KD of MS2 coat protein (input ligand: FMN 200 uM): 31.4 nM
- apparent KD of MS2 coat protein (input ligand: none): 21.5 nM

Sequence: CCGGAAAAGGAGGAUAUAGGAGUCGAUAGACACCUAGAAGGCCUGACAUGAGGAUCACCCAUGUGUCCUACCGG [Fiskers Ex 6 - 92] (puzzle: Exclusion 6)
- apparent KD of MS2 coat protein [1]: 38.3 nM
- apparent KD of MS2 coat protein [2]: 17.9 nM
- apparent KD of MS2 coat protein [3]: 16.8 nM

Sequence: CCGGAAAUGCAGGAUAUCGUAUCGGAAACGAUACGAGAAGGGUAUACAUGAGGAUCACCCAUGUGUCCUACCGG [Fiskers Ex 6 - 21] (puzzle: Exclusion 6)
- apparent KD of MS2 coat protein [2]: 20.6 nM

Sequence: CCGGAACAUGAGGAUCACCCAUGUCAGGAUAUCUCAAAAUCGUCGAUAGACGAUAACAAGAGAAGGGACACCGG [Mat - Exclusion 1 - Eli Mod - D29] (Eterna round: R97, puzzle: Exclusion 1)
- apparent KD of MS2 coat protein (input ligand: FMN 200 uM): 23.4 nM
- apparent KD of MS2 coat protein (input ligand: none): 20.8 nM

Sequence: CCGGAACAUGAGGAUCACCCAUGUGAGGAUAUCGUACGUUCGUCGAAAGACGAUCGUACGAGAAGGCACGCCGG [Eli x1 4.33] (Eterna round: R97, puzzle: Exclusion 1)
- apparent KD of MS2 coat protein (input ligand: FMN 200 uM): 17.2 nM
- apparent KD of MS2 coat protein (input ligand: none): 14.6 nM

Sequence: CCGGAUAUGCAGGAUAUCGUAUCGGAUACGAUACGAGAAGGGUAUACAUGAGGAUCACCCAUGUGCCUUACCGG [Mat - Exclusion 6 - Eli Mod - D83] (puzzle: Exclusion 6)
- apparent KD of MS2 coat protein [2]: 18 nM

Sequence: CCGGCGUGGUGCGGUUGUCGUUCGACAUGAGGAUCACCCAUGUAGGAUAUGCGCGUGGUCGCGCCGCAGAAGGGCAUCGUUUGG [Random, 15% A] (Eterna round: R96, puzzle: Exclusion NG 3)
- apparent KD of MS2 coat protein (input ligand: FMN 200 uM): 10.7 nM
- apparent KD of MS2 coat protein [4]: 10.7 nM
- apparent KD of MS2 coat protein (input ligand: none): 14.5 nM

Sequence: CCGGCUGCUGUGAGGAUAUGCCUGUGGGUGCGUGGGCAGAAGGCACAUGAGGAUCACCCAUGUCCUGCGGUCCC [salish99_bmx4_r4_114] (Eterna round: R97, puzzle: Brourd's mod of Exclusion 4)
- apparent KD of MS2 coat protein (input ligand: FMN 200 uM): 21 nM
- apparent KD of MS2 coat protein (input ligand: none): 26.6 nM

Sequence: CCGUACGGAGGAUAUACAUGAGGAUCACCCAUGUGUCCGCGCGUGGGAACACGUAAUAGUAGAAGGCCGUCCGG [jl-ex3-4.78 Brourd automod] (Eterna round: R97, puzzle: Exclusion 3)
- apparent KD of MS2 coat protein (input ligand: FMN 200 uM): 491 nM
- apparent KD of MS2 coat protein (input ligand: none): 59.4 nM

Sequence: CCUAAACAUGAGGAUCACCCAUGUGAGGAUAUGAUGCGAAUAAAGAAAGAAGAAAGCAUCAGAAGGCACAUAGG (Eterna round: R96, puzzle: Exclusion 1)
- apparent KD of MS2 coat protein [4]: 131 nM

Sequence: CCUAUGUGAGGAUAUCACUGGUCUGCUCACUAGAUGAUCAGUGAGAAGGCACAUGAGGAUCACCCAUGUCAGUG [Exclusion 4 - Mod Brourd Ex 4-3 - 53] (puzzle: Exclusion 4)
- apparent KD of MS2 coat protein [2]: 92.9 nM

Sequence: CCUAUGUGAGGAUAUCACUGGUCUUCUUUUAUUUUUUACAGUGAGAAGGCACAUGAGGAUCACCCAUGUCGGUG [Ex4 - 3 - 49] (Eterna round: R96, puzzle: Exclusion 4)
- apparent KD of MS2 coat protein (input ligand: FMN 200 uM): 98.4 nM
- apparent KD of MS2 coat protein [4]: 115 nM
- apparent KD of MS2 coat protein (input ligand: none): 192 nM

Sequence: CCUAUGUGAGGAUAUCACUGGUCUUCUUUUAUUUUUUACAGUGAGAAGGCACAUGAGGAUCACCCAUGUCGGUG [Ex4 - 3 - 49] (puzzle: Exclusion 4)
- apparent KD of MS2 coat protein [2]: 151 nM

Sequence: CCUAUGUGAGGAUAUCACUGGUCUUUUCAUUGGAUGAUUAGUGAGAAGGCACAUGAGGAUCACCCAUGUCGGUG [Ex4 - 3 - 52] (puzzle: Exclusion 4)
- apparent KD of MS2 coat protein [2]: 34.6 nM

Sequence: CCUCCACAUGAGGAUCACCCAUGUGAGGAUAUCCUGCGAGGAUCAAAAGAUCCUCGUGGGAGAAGGCACAUGAA [Omei Ex1 A9] (Eterna round: R97, puzzle: Exclusion 1)
- apparent KD of MS2 coat protein (input ligand: FMN 200 uM): 241 nM
- apparent KD of MS2 coat protein (input ligand: none): 39.3 nM

Sequence: CCUCCGUAUAAGGAUAUCGUCCAGGAAACUGGACGAGAAGGUAUGACAUGAGGAUCACCCAUGUGAAAGUGAUG [Mod of Brourd 25 - Jieux - Exclusion 6] (Eterna round: R97, puzzle: Exclusion 6)
- apparent KD of MS2 coat protein (input ligand: FMN 200 uM): 212 nM
- apparent KD of MS2 coat protein (input ligand: none): 71.4 nM

Sequence: CCUCGACGGUAGGAUAUCGUCAAACUAUUGUGAUGAGAAGGACUGACAUGAGGAUCACCCAUGUUAACGUGAUA [Exclusion 6 - 7:b] (puzzle: Exclusion 6)
- apparent KD of MS2 coat protein [2]: 17.1 nM

Sequence: CCUCGUUGGGAGGAUAUCCUUUAGAUUGGAGGAGGAGAAGGCUCGACAUGAGGAUCACCCAUGUAAAAUUUAAA [-18.7, -17.5 kcal, A 31%] (Eterna round: R97, puzzle: Exclusion 6)
- apparent KD of MS2 coat protein (input ligand: FMN 200 uM): 274 nM
- apparent KD of MS2 coat protein (input ligand: none): 73.3 nM

Sequence: CCUCUACAUGAGGAUCACCCAUGUGAGGAUAUCUCGGAGCAACCACUUAAGGCGCUCCAGAGAAGGCACGUGUA [Erralaqu] (puzzle: Exclusion 1)
- apparent KD of MS2 coat protein [2]: 19.5 nM

Sequence: CCUCUACAUGAGGAUCACCCAUGUGAGGAUAUGUUGACGAGCCAGAAAUGGCUGGUCAACAGAAGGCAUAUGUA [Exclusion 1 (Mod 2.1 solution 16 by Eternabot)] (Eterna round: R97, puzzle: Exclusion 1)
- apparent KD of MS2 coat protein (input ligand: FMN 200 uM): 43.7 nM
- apparent KD of MS2 coat protein (input ligand: none): 23.7 nM
